Results from patent EP0866131A2.

Target: human Fas antigen on HPB-ALL cells (human) (UniProt P25445)
Assay: cell-based or functional assay

Sequence of UniProt P25445 (P25445 26-335): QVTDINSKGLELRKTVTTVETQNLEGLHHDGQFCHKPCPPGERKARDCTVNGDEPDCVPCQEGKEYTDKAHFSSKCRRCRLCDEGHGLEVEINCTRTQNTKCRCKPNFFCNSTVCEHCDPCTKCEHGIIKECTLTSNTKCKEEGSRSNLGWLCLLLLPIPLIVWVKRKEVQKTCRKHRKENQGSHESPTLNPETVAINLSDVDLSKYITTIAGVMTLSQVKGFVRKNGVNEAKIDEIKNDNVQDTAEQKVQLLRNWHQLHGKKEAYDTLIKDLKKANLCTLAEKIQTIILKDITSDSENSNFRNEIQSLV

“mouse anti-human Fas monoclonal antibody CH11” gave an ED50 (ng/ml), cytotoxic activity on HPB-ALL cells of 10.7 ng/mL.
